According to patent US20220332795A1 (ARO BIOTHERAPEUTICS, published 2022):
Numbering of substitutions follows the chain as printed.

B1: SEQ ID NO 103 (designed binder)
chain: MLPAPKNLVVSRVTEDSARLSWTAPDAAFDSFHIVYHEPRPSGEAIWLHVPGSERSYDLTGLKPGTEYEVGIVSVKGGDLSVPLVAFFTT
notes: FN3 domain
B2: SEQ ID NO 168 (designed binder)
chain: MLPAPKNLVVSRVTEDSARLSWTAPDAAFDSFYIAYAEPRPDGEAILLDVPGSERSYDLTGLKPGTEYSVLIHGVKGGLLSSPLSAIFTT
notes: FN3 domain
B3: SEQ ID NO 113 (designed binder)
chain: B2 chain with L47N, D49Q, S85V, I87F
notes: FN3 domain
B4: SEQ ID NO 116 (designed binder)
chain: B2 chain with L47Q, D49V
notes: FN3 domain
B5: SEQ ID NO 118 (designed binder)
chain: B2 chain with L47W, D49V, S85V, I87S
notes: FN3 domain
B6: SEQ ID NO 125 (designed binder)
chain: B2 chain with L47A, D49H, S85V, I87F
notes: FN3 domain
B7: SEQ ID NO 106 (designed binder)
chain: B2 chain with S85Y, I87S
notes: FN3 domain
B8: SEQ ID NO 124 (designed binder)
chain: B2 chain with L47Q, D49H, S85L, I87S
notes: FN3 domain
B9: SEQ ID NO 112 (designed binder)
chain: B2 chain with D49L
notes: FN3 domain
B10: SEQ ID NO 105 (designed binder)
chain: B2 chain with L47F, D49V, S85H, I87N
notes: FN3 domain
B11: SEQ ID NO 104 (designed binder)
chain: B2 chain with L47S, D49L, S85Y, I87V
notes: FN3 domain
B12: SEQ ID NO 122 (designed binder)
chain: B2 chain with L47I, D49V, I87H
notes: FN3 domain
B13: SEQ ID NO 120 (designed binder)
chain: B2 chain with L47H, D49S, S85V
notes: FN3 domain
B14: SEQ ID NO 119 (designed binder)
chain: B2 chain with L47N, S85V, I87E
notes: FN3 domain
B15: SEQ ID NO 117 (designed binder)
chain: B2 chain with L47T
notes: FN3 domain

molecular target: T1, recombinant biotinylated human CD71 extracellular domain (human, UniProt P02786 89-760, biotinylated); assay: solution ELISA
T1 construct: extracellular domain; also called hCD71; huCD71 ECD
T1 sequence (P02786 other isoform, or with tags, fused parts or gaps): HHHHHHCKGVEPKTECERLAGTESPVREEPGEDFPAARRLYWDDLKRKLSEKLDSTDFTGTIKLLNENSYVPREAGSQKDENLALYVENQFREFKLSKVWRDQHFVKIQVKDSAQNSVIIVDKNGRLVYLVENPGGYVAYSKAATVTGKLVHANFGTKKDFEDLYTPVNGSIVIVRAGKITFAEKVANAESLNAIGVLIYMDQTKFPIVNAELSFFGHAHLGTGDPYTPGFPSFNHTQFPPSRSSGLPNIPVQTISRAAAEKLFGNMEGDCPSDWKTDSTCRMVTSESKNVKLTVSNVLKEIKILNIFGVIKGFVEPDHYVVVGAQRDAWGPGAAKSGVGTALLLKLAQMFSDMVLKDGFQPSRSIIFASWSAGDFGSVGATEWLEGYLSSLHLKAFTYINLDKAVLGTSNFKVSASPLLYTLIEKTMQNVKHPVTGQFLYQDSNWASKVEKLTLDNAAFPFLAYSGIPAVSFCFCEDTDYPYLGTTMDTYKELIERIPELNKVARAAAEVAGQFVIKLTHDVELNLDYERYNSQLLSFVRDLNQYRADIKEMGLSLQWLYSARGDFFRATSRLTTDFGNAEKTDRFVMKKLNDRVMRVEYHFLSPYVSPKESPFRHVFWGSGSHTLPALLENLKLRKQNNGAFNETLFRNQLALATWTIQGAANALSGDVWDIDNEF

| hCD71, RLU | Binder |
| --- | --- |
| 818000 RLU | B1 |
| 3.97e+06 RLU | B2 |
| 1.27e+06 RLU | B3 |
| 428000 RLU | B4 |
| 1.73e+06 RLU | B5 |
| 1.23e+06 RLU | B6 |
| 4.97e+06 RLU | B7 |
| 1.54e+06 RLU | B8 |
| 4.48e+06 RLU | B9 |
| 2.43e+06 RLU | B10 |
| 947000 RLU | B11 |
| 4.77e+06 RLU | B12 |
| 501000 RLU | B13 |
| 1.25e+06 RLU | B14 |
| 1.3e+06 RLU | B15 |

molecular target: T2, CD71 apical domain (UniProt P02786 189-383, limits assumed); assay: solution ELISA
T2 construct: domain: Apical domain
T2 sequence (P02786 189-383 limits assumed): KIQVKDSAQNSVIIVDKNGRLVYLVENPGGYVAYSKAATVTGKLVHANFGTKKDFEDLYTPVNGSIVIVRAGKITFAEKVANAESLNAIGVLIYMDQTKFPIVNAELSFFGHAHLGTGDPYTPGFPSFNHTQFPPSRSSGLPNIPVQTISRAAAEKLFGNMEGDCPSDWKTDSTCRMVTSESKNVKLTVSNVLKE

| Apical domain, RLU | Binder |
| --- | --- |
| 4.14e+06 RLU | B1 |
| 6.86e+06 RLU | B2 |
| 5.83e+06 RLU | B3 |
| 4.93e+06 RLU | B4 |
| 6.58e+06 RLU | B5 |
| 5.26e+06 RLU | B6 |
| 7.37e+06 RLU | B7 |
| 5.46e+06 RLU | B8 |
| 7.7e+06 RLU | B9 |
| 6.79e+06 RLU | B10 |
| 5.9e+06 RLU | B11 |
| 8.06e+06 RLU | B12 |
| 5.75e+06 RLU | B13 |
| 4.93e+06 RLU | B14 |
| 5.36e+06 RLU | B15 |

molecular target: T1, recombinant biotinylated human CD71 …; assay: solution ELISA, signal ratio to HSA

| hCD71:HSA | Binder |
| --- | --- |
| 28.2 | B1 |
| 271 | B2 |
| 42.6 | B3 |
| 37.1 | B4 |
| 120 | B5 |
| 76.2 | B6 |
| 118 | B7 |
| 63.1 | B8 |
| 413 | B9 |
| 142 | B10 |
| 89.8 | B11 |
| 351 | B12 |
| 42.5 | B13 |
| 57.6 | B14 |
| 75.4 | B15 |

molecular target: T2, CD71 apical domain; assay: solution ELISA, signal ratio to HSA

| apical domain:HSA | Binder |
| --- | --- |
| 143 | B1 |
| 468 | B2 |
| 196 | B3 |
| 427 | B4 |
| 459 | B5 |
| 327 | B6 |
| 176 | B7 |
| 224 | B8 |
| 709 | B9 |
| 397 | B10 |
| 559 | B11 |
| 592 | B12 |
| 487 | B13 |
| 228 | B14 |
| 312 | B15 |
